The values that follow come from patent US20220089784A1 (University of California, published 2022).

Assay [1] concerns the target T1, BoNT/B HC (C-terminal domain of the BoNT/B heavy chain, recombinant) (Clostridium botulinum, UniProt P10844 853-1291).
T1 sequence: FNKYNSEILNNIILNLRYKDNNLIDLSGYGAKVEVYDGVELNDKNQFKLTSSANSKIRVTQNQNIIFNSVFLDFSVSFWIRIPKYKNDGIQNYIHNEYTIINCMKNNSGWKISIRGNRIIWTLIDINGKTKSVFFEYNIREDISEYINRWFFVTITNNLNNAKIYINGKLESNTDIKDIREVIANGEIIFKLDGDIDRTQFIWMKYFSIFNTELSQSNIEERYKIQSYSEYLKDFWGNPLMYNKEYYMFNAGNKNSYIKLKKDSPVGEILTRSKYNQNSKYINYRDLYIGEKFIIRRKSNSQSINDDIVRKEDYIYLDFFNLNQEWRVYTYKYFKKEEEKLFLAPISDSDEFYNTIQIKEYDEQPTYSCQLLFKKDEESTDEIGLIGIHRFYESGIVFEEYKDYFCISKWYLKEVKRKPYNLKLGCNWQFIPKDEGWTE
Nature of the assay: yeast scFv FACS.

A further assay addresses T2, BoNT/B1 (Clostridium botulinum, UniProt P10844 2-1291).
T2 sequence: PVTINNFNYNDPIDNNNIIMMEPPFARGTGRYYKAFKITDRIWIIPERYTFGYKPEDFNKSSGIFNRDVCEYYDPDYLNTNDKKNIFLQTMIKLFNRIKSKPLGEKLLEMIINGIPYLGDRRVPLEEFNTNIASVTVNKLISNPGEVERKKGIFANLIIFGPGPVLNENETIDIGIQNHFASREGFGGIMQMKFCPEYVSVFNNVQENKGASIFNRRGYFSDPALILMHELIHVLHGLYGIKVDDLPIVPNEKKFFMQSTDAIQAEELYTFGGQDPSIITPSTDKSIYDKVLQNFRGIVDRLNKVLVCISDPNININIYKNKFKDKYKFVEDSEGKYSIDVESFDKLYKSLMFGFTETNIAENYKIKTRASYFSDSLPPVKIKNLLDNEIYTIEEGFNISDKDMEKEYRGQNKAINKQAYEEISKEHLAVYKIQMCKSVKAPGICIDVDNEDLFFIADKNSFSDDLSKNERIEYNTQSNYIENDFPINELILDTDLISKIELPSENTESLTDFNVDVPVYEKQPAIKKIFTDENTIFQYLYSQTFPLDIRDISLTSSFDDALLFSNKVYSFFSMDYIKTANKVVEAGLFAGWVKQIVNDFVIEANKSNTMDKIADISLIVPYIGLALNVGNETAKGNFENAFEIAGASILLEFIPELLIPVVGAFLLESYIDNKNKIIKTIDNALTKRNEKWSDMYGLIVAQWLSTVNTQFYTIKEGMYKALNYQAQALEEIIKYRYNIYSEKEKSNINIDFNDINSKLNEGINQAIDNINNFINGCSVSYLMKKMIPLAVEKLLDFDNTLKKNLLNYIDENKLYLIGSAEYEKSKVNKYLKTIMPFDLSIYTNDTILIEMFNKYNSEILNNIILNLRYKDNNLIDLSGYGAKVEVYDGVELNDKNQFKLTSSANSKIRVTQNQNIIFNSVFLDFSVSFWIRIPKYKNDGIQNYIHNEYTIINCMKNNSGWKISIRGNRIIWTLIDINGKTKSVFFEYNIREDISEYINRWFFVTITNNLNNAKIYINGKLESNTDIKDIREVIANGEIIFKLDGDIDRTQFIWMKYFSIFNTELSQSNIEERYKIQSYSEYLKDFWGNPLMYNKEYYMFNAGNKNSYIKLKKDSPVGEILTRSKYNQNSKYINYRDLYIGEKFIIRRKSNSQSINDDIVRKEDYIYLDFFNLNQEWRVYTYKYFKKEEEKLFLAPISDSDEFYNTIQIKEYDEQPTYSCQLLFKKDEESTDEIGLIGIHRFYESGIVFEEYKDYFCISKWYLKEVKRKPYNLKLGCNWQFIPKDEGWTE
Nature of the assay: yeast scFv FACS.

Assay [2] concerns the target T3, BoNT/A1 holotoxin (Hall hyper) (Clostridium botulinum, UniProt P0DPI0 2-1296). The assay can be described thus: KinExA, IgG.
Assay [3] addresses BoNT/A light chain (recombinant) (Clostridium botulinum, UniProt P0DPI0 1-448). The assay can be described thus: KinExA, IgG. In general terms: Kinetic exclusion samples the free partner from a solution-phase mixture.
The target in assay [4] is T3, BoNT/A1 holotoxin (Hall hyper).
The target in the next assay is T4, BoNT/F 202F (Clostridium botulinum, UniProt P30996 1-1274).
T4 sequence: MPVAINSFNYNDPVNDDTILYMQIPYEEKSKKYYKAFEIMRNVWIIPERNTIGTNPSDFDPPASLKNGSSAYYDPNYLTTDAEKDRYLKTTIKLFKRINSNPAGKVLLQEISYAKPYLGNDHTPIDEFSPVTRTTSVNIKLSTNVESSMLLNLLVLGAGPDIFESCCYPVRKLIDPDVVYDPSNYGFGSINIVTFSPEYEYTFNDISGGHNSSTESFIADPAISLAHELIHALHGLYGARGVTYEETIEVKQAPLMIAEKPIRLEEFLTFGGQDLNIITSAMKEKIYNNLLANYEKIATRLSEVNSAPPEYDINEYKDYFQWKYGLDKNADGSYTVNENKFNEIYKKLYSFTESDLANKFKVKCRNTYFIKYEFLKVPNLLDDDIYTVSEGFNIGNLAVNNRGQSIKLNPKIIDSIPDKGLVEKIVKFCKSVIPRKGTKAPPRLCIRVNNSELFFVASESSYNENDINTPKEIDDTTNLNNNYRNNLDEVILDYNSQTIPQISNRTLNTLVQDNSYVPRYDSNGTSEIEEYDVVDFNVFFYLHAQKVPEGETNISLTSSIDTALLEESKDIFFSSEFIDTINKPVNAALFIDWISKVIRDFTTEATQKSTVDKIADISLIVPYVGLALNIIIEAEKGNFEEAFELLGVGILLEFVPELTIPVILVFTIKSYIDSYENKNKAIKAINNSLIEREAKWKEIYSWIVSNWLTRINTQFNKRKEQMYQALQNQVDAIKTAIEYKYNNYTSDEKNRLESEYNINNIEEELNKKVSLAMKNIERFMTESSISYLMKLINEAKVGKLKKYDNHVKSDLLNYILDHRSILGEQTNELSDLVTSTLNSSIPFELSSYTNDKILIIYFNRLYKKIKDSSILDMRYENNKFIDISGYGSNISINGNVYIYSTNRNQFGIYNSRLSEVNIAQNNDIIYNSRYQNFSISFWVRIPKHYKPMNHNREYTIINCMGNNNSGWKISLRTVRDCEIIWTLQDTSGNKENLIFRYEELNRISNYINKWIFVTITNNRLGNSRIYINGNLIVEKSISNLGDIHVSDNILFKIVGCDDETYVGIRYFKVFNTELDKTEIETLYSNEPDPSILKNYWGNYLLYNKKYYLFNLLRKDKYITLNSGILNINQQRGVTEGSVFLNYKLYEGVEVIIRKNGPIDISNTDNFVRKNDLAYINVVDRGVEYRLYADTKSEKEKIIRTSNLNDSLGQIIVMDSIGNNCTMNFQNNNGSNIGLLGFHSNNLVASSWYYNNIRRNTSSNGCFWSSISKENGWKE
Nature of the assay: yeast scFv FACS.

In assay [5] the target is T5, BoNT/F1 (proteolytic BoNT/F) (Clostridium botulinum, UniProt A7GBG3 1-1278).
T5 sequence: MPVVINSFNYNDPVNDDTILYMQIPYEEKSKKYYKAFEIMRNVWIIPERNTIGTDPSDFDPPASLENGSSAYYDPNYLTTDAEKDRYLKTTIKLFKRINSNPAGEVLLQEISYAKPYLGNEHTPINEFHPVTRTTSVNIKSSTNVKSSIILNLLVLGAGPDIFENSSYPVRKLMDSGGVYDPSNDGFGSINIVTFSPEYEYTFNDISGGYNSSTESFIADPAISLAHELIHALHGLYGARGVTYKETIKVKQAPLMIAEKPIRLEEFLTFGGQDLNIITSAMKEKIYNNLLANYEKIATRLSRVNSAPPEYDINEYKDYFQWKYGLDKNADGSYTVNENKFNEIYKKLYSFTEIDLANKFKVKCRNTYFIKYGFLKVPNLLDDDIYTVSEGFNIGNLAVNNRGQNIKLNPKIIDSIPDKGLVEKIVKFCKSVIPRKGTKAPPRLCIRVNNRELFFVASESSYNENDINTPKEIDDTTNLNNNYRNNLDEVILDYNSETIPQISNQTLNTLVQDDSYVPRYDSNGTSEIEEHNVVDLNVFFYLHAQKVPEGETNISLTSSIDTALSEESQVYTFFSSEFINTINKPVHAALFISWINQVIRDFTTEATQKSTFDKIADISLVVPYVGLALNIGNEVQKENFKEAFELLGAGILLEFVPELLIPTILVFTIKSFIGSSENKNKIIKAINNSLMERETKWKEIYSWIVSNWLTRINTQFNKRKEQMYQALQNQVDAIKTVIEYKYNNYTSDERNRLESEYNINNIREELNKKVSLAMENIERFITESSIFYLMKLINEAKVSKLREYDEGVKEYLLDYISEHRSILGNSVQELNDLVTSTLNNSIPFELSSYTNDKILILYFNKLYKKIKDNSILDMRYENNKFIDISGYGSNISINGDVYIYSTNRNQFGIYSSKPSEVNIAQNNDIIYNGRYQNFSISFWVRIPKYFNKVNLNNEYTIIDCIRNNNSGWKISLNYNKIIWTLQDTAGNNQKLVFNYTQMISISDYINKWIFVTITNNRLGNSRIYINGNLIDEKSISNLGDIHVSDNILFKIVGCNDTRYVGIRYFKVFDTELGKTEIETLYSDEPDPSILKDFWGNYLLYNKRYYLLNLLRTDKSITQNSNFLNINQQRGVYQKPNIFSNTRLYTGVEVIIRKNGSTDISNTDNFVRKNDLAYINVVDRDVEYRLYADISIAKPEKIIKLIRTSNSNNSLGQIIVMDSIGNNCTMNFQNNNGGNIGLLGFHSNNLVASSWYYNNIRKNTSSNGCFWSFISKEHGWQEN
The assay can be described thus: yeast scFv FACS.

Assay [6] concerns the target T5, BoNT/F1 (proteolytic BoNT/F).

By Kd is commonly meant the free concentration of one partner at which half of the binding sites on the other are occupied at equilibrium, for simple one-to-one binding.

Where two headings read alike, the source gives them in different places.

B1: 26C2 scFv (scFv)
scFv: QVQLKQSGPELVKPGASVKLSCKASGYTFTSYDINWVKQRPGQGLEWIGWIYPRDDITKYNEKFKDKATLTVDTSSSTAYMELHSLTSEDSAVYFCARGDYYGSLDYWGQGTTLTVSSVDLKSGGSTSGSGKPGSGEGSSGSARQIVLTQSPAIMSASPGEKVTMTCSASSSVSYMHWYQQKSSTSPKLWIYDTSKLASGVPGRFSGSGSGNSYSLTISSMEAEDVATYYCFQGSGYPLTFGAGTKLEIK
notes: mouse
For the molecule B1, the Kd stood at 7.76 nM in assay [1] and 23.7 nM with BoNT/B1.

B2: 6A8M IgG (antibody, V domains shown)
VH: QVQLKESGPGLVKPSQTVSLTCTVTGYSITNGNHWWNWIRQVSGSKLEWIGYISSSGYTDINPSLKSRISITRDTSKNQLFLQLNSVTTEDIATYYCARDDGYYEALDYWGQGTSVTVSS
VL: DIVMSQSPAIMSASPGEKVTLTCSASSSVSSNYLYWYQQKPGSSPKLWIYSTSNLASGVPARFSGSGSGTSYSLTISRVEAEDAATYYCQQWSSNPPTFGGGTKLEIK
notes: IgG converted from scFv
As to B2, the Kd is 0.852 nM in assay [2] and 4.99 nM in assay [3].

B3: B4 (antibody) (antibody, V domains shown)
VH: QVQLVESGGGVVRPGGSLRLSCAASGFTFDDYGMSWVRQAPGKGLEWVSAINWNGGNTGYADSVKGRFTISRDNAKNSLYLQMNSLRVEDTALYHCAREGDYGGLYFDYWGQGTLVTVSS
VL: not shown
B3 displayed a Kd in assay [4] of 0.0931 nM.

B4: 26G5 scFv (scFv)
scFv: EVQLQESGPGLAKPSQTLSLTCSVTGYSITSDYWNWIRKFPGNKLEYMGYISYSGSTYYNPSLKSRISITRDTSKNQYYLQLNSVTTEDTATYYCARSFYDGYLYFDYWGQGTTVTVSSVDLKSGGSTSGSGKPGSGEGSSGSAREIVLTQSPAILSASPGEKVTMTCSASSSVSYMYWYQQKPGSSPRLLIYDTSNLASGVPARFSGSGSGTSYSLTISRVEAEDAATYYCQQWSSYPPTFGDGTRLEIK
notes: mouse
With B4, the Kd in assay [1] came to 1.79 nM; with BoNT/B1 it was 3.91 nM.

B5: 26E6 scFv (scFv)
scFv: EVQLQQSGPELVKPGASVKISCKASGYTFADYYINWVKQSHGKSLEWIGDFNPNNGDHSYNQKFKDKATLTVDESSNTAYMELRSLTSEDSAVYYCTREFYYYFDVWGTGTTVTVSSVDLKSGGSTSGSGKPGSGEGSSGSARDIVMSQSPLSLPVSLGDQAFISCRFSQSIVHSNGNTYLEWYLQKPGQSPKLLIYKVSNRFSGVPDRFSGSGSGTDFTLKISRVEAEDLGVYYCFQGSHVPYTFGGGTKLEIK
notes: mouse
Take B5: the Kd worked out at 0.889 nM in assay [1] and 4.85 nM in the assay with BoNT/B1.

B6: 42G8 scFv (scFv, V domains shown)
VH: EVQLVPSGGNLVQPGGSLRLSCAATGPIGSHWMTWVRQAPGQGLEWVANINLDGTEKFYVDSVKGRFTVSRDNRKSSVFLQMNNLRVDDTAVYYCARLQWGGYNGWLSPWGQGTLVTVSS
VL: DIVMTQSPPSLSASVGDRVSLTCRASEYIGTSLNWYQQKPGKAPKLLIYAASALHSGVPSRFSGSGSGTDFTLTISGLQPEDFATYYCQQTNDLPLTFGGGTKLEIK
For B6, the binding result in the assay with BoNT/F 202F is “binds”. For the same molecule, the Kd in assay [5] is 0.243 nM. The “fold increase in affinity over scFv 4E17.2” value in assay [6] was about 6 fold.
